From patent publication US20150361184

Biological target: T1, Flag-tagged kinase dead murine DLK S302A, not phosphorylated at T43, S272 and S533
T1 chain: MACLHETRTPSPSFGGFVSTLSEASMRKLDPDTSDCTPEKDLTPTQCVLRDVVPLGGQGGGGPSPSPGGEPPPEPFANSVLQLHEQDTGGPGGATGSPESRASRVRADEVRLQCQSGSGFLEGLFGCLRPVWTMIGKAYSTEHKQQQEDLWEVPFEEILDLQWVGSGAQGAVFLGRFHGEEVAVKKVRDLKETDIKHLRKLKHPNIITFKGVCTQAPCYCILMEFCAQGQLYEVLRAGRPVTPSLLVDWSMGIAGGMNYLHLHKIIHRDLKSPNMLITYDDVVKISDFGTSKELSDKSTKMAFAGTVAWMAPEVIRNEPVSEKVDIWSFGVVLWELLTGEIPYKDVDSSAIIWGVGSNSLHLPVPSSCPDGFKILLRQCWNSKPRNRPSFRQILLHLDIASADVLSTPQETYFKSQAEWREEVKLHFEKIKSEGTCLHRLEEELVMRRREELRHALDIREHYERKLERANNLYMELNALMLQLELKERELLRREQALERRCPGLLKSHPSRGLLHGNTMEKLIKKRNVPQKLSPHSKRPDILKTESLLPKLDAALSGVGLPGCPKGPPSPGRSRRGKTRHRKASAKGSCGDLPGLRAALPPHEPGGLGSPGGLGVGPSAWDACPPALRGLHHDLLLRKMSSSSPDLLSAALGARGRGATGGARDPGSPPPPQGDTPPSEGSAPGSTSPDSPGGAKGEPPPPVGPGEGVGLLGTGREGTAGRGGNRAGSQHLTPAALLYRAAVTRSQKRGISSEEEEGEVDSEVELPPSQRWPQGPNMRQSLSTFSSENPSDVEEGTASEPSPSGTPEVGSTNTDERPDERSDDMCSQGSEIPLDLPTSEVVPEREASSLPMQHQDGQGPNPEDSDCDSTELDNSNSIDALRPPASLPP

B1: GST-tagged human recombinant JNK3 (Millipore) (protein)
chain: MSLHFLYYCSEPTLDVKIAFCQGFDKQVDVSYIAKHYNMSKSKVDNQFYSVEVGDSTFTVLKRYQNLKPIGSGAQGIVCAAYDAVLDRNVAIKKLSRPFQNQTHAKRAYRELVLMKCVNHKNIISLLNVFTPQKTLEEFQDVYLVMELMDANLCQVIQMELDHERMSYLLYQMLCGIKHLHSAGIIHRDLKPSNIVVKSDCTLKILDFGLARTAGTSFMMTPYVVTRYYRAPEVILGMGYKENVDIWSVGCIMGEMVRHKILFPGRDYIDQWNKVIEQLGTPCPEFMKKLQPTVRNYVENRPKYAGLTFPKLFPDSLFPADSEHNKLKASQARDLLSKMLVIDPAKRISVDDALQHPYINVWYDPAEVEAPPPQIYDKQLDEREHTIEEWKELIYKEVMNSEEKTKNGVVKGQPSPSGAAVNSSESLPPSSSVNDISSMSTDQTLASDTDSSLEASAGPLGCCR
  in vitro kinase assay; phosphorylation of T43 and S533 read by blotting with phospho-specific antibodies: both T43 and S533 can be phosphorylated directly by JNK
